In publication PMC10667928:

Experiments:
[1] = target: human chimeric MC4R chim7 (named Mut in this study) (human) (UniProt P32245); assay: FRET or BRET; FRET-FLIM (pulsed interleaved excitation) on fixed HEK293T cells, basal or apical membrane; first-named protomer with C-terminal eGFP (donor, written as binder), second with C-terminal mCherry (acceptor, written as target); donor/acceptor ratio 1:5 at transfection; lifetime-based FRET efficiency Eτ against donor-only samples
[2] = target: Xiphophorus multilineatus melanocortin 4 receptor, wild-type A allele (Mc4r A) (X. multilineatus); assay: as above
[3] = target: Xiphophorus multilineatus melanocortin 4 receptor, mutant B2 allele (Mc4r B2) (X. multilineatus); assay: as above
[4] = target: Xiphophorus multilineatus melanocortin 4 receptor, mutant B1 allele (Mc4r B1) (X. multilineatus); assay: as above
[5] = target: Xiphophorus multilineatus melanocortin 4 receptor, wild-type A allele (Mc4r A) (X. multilineatus); assay: FRET or BRET; FRET-FLIM (pulsed interleaved excitation) on fixed HEK293T cells, basal or apical membrane; first-named protomer with C-terminal eGFP (donor, written as binder), second with C-terminal mCherry (acceptor, written as target); donor/acceptor ratio 1:1 at transfection; lifetime-based FRET efficiency Eτ against donor-only samples
[6] = target: Xiphophorus multilineatus melanocortin 4 receptor, mutant B1 allele (Mc4r B1) (X. multilineatus); assay: as above
[7] = target: Xiphophorus multilineatus melanocortin 4 receptor, wild-type A allele (Mc4r A) (X. multilineatus); assay: FRET or BRET; FRET-FLIM data of the fixed cells sorted by stoichiometry (<0.3, 0.3-0.5, 0.5-0.7, >0.7); dimerization grade by equation (8): β1AR as monomer baseline, CD28 at stoichiometry <0.3 as 100%
[8] = target: Xiphophorus multilineatus melanocortin 4 receptor, mutant B2 allele (Mc4r B2) (X. multilineatus); assay: as above
[9] = target: Xiphophorus multilineatus melanocortin 4 receptor, mutant B1 allele (Mc4r B1) (X. multilineatus); assay: as above

FRET efficiency Eτ [1] [%]	FRET efficiency Eτ [2] [%]	donor (eGFP) lifetime; donor-only 2.13 ns [2] [ns]	FRET efficiency Eτ [3] [%]	FRET efficiency Eτ [4] [%]	FRET efficiency Eτ [5] [%]	donor (eGFP) lifetime; donor-only 2.13 ns [5] [ns]	FRET efficiency Eτ [6] [%]	dimerization grade at stoichiometry 0.3-0.5 [7] [%]	dimerization grade at stoichiometry <0.3 [7] [%]	dimerization grade at stoichiometry 0.3-0.5 [8] [%]	dimerization grade at stoichiometry <0.3 [8] [%]	dimerization grade at stoichiometry 0.3-0.5 [9] [%]	dimerization grade at stoichiometry <0.3 [9] [%]	Substance
19.6	–	–	–	–	–	–	–	–	–	–	–	–	–	human MC4R wild-type (from UniProt P32245 1-332) (receptor)
–	26.1	1.57	23.8	21.6	12.7	1.85	15.4	26	76	28	52	28	52	Xiphophorus multilineatus melanocortin 4 receptor, wild-type A allele (Mc4r A)
